Patent US20120269817A1 (Bayer, published 2012)

T1: human tissue factor pathway inhibitor (TFPI) (human, UniProt P10646 29-304, limits assumed)
T1 construct: Bought protein; also called human TFPI; hTFPI
T1 sequence (looked up): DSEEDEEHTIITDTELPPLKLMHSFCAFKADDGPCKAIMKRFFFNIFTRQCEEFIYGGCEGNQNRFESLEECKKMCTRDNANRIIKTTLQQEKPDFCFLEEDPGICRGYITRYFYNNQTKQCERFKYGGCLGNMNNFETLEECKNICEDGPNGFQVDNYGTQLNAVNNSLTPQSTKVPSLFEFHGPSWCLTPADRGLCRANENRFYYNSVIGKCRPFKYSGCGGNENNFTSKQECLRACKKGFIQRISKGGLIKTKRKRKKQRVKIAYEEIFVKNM

T2: mouse tissue factor pathway inhibitor (TFPI) (mouse, UniProt O54819 29-289, limits assumed)
T2 construct: Bought protein; also called mouse TFPI; mTFPI
T2 sequence (looked up): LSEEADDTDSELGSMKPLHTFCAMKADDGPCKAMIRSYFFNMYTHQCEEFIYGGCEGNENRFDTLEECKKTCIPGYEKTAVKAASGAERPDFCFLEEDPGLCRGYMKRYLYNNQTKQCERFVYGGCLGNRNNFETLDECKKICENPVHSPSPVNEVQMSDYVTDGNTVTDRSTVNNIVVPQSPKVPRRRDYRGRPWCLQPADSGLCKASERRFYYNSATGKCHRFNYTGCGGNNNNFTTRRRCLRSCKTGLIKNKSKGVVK


Experiments:
BSA = target: T3, BSA (bovine, UniProt P02769 25-607); assay: ELISA
T3 construct: also called bovine serum albumin
T3 sequence (P02769 25-607 limits assumed): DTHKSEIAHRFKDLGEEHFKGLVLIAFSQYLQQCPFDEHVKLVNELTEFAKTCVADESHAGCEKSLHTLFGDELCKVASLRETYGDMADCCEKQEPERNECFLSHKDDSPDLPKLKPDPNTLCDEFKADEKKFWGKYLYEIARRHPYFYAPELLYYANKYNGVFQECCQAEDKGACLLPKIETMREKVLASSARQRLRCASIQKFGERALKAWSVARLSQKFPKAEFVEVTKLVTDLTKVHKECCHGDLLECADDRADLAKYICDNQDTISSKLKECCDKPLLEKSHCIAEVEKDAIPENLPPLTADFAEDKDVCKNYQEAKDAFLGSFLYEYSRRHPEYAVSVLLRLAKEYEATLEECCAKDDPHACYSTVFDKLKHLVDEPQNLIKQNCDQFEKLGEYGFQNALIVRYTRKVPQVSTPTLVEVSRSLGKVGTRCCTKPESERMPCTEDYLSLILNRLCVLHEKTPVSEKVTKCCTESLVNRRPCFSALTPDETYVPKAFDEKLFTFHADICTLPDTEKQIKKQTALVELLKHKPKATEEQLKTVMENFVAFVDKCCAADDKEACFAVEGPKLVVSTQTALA
Procedure: (§1) To select antibody clones that bind to human TFPI, Fab genes of the phage clones from the second and third round of panning were subcloned into a bacterial expression vector and expressed in E. coli strain TG1. The bacterial lysate was added to the wells of the human TFPI-coated Maxisorp plates. After washing, HRP-conjugated goat anti-human Fab was used as a detection antibody and the plates were developed by adding AmplexRed (Invitrogen) with hydrogen peroxide. A signal of at least five-fold higher than the background was considered as positive. The cross reactivity of the anti-human TFPI antibodies to mouse TFPI was determined by a similar mouse TFPI-binding ELISA. The plates were coated with mouse TFPI (R&D System), BSA and lysozyme. The later two antigens were used as negative controls.

[1] = target: T1, human tissue factor pathway inhibitor …; assay: ELISA, Fab lysate on coated human TFPI
Procedure: as §1

[2] = target: T1, human tissue factor pathway inhibitor …; assay: cell-based or functional assay
[3] = target: T1, human tissue factor pathway inhibitor …; assay: ELISA, Fab on coated TFPI
Procedure: as §1
(§2) Purified Fab antibodies were used to determine EC₅₀ of anti-TFPI antibodies to human or mouse TFPI. EC₅₀ was assessed in an ELISA, similarly as described above. The results were analyzed using SoftMax. The binding affinity of anti-TFPI antibodies was determined in a Biacore assay. Briefly, the antigen, either human or mouse TFPI, was immobilized on the CM5-chips using the amine coupling kit (GE HealthCare) according to the instructions of the manufacturer. The amount of immobilized TFPI was adjusted to the mass of the antigen to give approximate 300 RU. The antibody Fabs were analyzed in mobile phase and at least five different concentrations (0.1, 0.4, 1.6, 6.4 and 25 nM) of the purified antibodies were used in the Biacore assay. The kinetics and binding affinity were calculated using Biacore T100 Evaluation software.

[4] = target: T2, mouse tissue factor pathway inhibitor …; assay: ELISA, Fab on coated TFPI
Procedure: as §1, §2

[5] = target: T1, human tissue factor pathway inhibitor …; assay: Biacore, TFPI on CM5 chip, Fab in mobile phase
Procedure: as §2

[6] = target: T2, mouse tissue factor pathway inhibitor …; assay: Biacore, TFPI on CM5 chip, Fab in mobile phase
Procedure: as §2

| binding result (BSA) | binding result [1] | % inhibition of hTFPI activity [2] | dPT in hemoA plasma [2] | EC50 [3] | EC50 [4] | Kd [5] | Kd [6] | Binder |
| --- | --- | --- | --- | --- | --- | --- | --- | --- |
| no binding | binds | – | – | – | – | – | – | TP-3H2 Fab (Fab, V domains shown, Human Fab from HuCal Gold, expressed in E. coli TG1) VH: QVQLVESGGGLVQPGGSLRLSCAASGFTFNSYYMSWVRQAPGKGLEWVSNISSSGSNTNYADSVKGRFTISRDNSKNTLYLQMNSLRAEDTAVYYCARVHYGFDFWGQGTLVTVSS VL: DIELTQPPSVSVAPGQTARISCSGDKLGKYYAYWYQQKPGQAPVLVIYGDSKRPSGIPERFSGSNSGNTATLTISGTQAEDEADYYCSSAAFGSTVFGGGTKLTVLG |
| no binding | – | 100% | 57.9 s | 0.09 nM | 0.06 nM | 1.25 nM | 3.08 nM | TP-2A8 Fab (Fab, V domains shown, Human Fab from HuCal Gold, expressed in E. coli TG1; also called Fab-2A8) VH: QVQLVESGGGLVQPGGSLRLSCAASGFTFRSYGMSWVRQAPGKGLEWVSSIRGSSSSTYYADSVKGRFTISRDNSKNTLYLQMNSLRAEDTAVYYCARKYRYWFDYWGQGTLVTVSS VL: DIELTQPPSVSVAPGQTARISCSGDNLRNYYAHWYQQKPGQAPVVVIYYDNNRPSGIPERFSGSNSGNTATLTISGTQAEDEADYYCQSWDDGVPVFGGGTKLTVLG |
| no binding | binds | – | – | – | – | – | – | TP-3E1 Fab (Fab, V domains shown, Human Fab from HuCal Gold, expressed in E. coli TG1) VH: QVQLVESGGGLVQPGGSLRLSCAASGFTFSNYAMTWVRQAPGKGLEWVSVISSVGSNTYYADSVKGRFTISRDNSKNTLYLQMNSLRAEDTAVYYCARPTKAGRTWWWGPYMDVWGQGTLVTVSS VL: DIELTQPPSVSVAPGQTARISCSGDNIGSYYAYWYQQKPGQAPVLVIYDDSNRPSGIPERFSGSNSGNTATLTISGTQAEDEADYYCQSYDSTGLLVFGGGTKLTVLG |
| no binding | binds | – | – | – | – | – | – | TP-4A7 Fab (Fab, V domains shown, Human Fab from HuCal Gold, expressed in E. coli TG1) VH: QVQLVESGGGLVQPGGSLRLSCAASGFTFRNYAMNWVRQAPGKGLEWVSVISGSSSYTYYADSVKGRFTISRDNSKNTLYLQMNSLRAEDTAVYYCARADLPYMVFDYWGQGTLVTVSS VL: DIELTQPPSVSVAPGQTARISCSGDALGSKFAHWYQQKPGQAPVLVIYDDSERPSGIPERFSGSNSGNTATLTISGTQAEDEADYYCQAYDSGLLYVFGGGTKLTVLG |
| no binding | – | 63% | 79.5 s | 2.18 nM | 32.4 nM | 10.2 nM | 11.5 nM | TP-2H10 Fab (Fab, V domains shown, Human Fab from HuCal Gold, expressed in E. coli TG1) VH: QVQLQQSGPGLVKPSQTLSLTCAISGDSVSSNGAAWGWIRQSPGRGLEWLGFIYRRSKWYNSYAVSVKSRITINPDTSKNQFSLQLNSVTPEDTAVYYCARQDGMGGMDSWGQGTLVTVSS VL: not shown |
| no binding | – | 100% | 74 s | 0.84 nM | 20.2 nM | 7.4 nM | 27 nM | TP-2B3 Fab (Fab, V domains shown, Human Fab from HuCal Gold, expressed in E. coli TG1) VH: QVQLQQSGPGLVKPSQTLSLTCAISGDSVSSNSAAWGWIRQSPGRGLEWLGMIYYRSKWYNSYAVSVKSRITINPDTSKNQFSLQLNSVTPEDTAVYYCARTMSKYGGPGMDVWGQGTLVTVSS VL: DIVLTQSPATLSLSPGERATLSCRASQNIGSNYLAWYQQKPGQAPRLLIYGASTRATGVPARFNGSGSGTDFTLTISSLEPEDFAVYYCQQLNSIPVTFGQGTKVEIKR |
| no binding | binds | – | – | – | – | – | – | TP-3D3 Fab (Fab, V domains shown, Human Fab from HuCal Gold, expressed in E. coli TG1) VH: QVQLVESGGGLVQPGGSLRLSCAASGFTFSSYASWVRQAPGKGLEWVSGISGDGSNTHYADSVKGRFTISRDNSKNTLYLQMNSLRAEDTAVYYCARYDNFYFDVWGQGTLVTVSS VL: DIELTQPPSVSVAPGQTARISCSGDSLGSKFAHWYQQKPGQAPVLVIYDDSNRPSGIPERFSGSNSGNTATLTISGTQAEDEADYYCSTYTSRSHSYVFGGGTKLTVLG |
| no binding | – | 92% | 68.9 s | 59 nM | 957 nM | 17.1 nM | 28.5 nM | TP-3C2 Fab (Fab, V domains shown, Human Fab from HuCal Gold, expressed in E. coli TG1) VH: QVQLQQSGPGLVKPSQTLSLTCAISGDSVSSSSAAWSWIRQSPGRGLEWLGMIYYRSKWYNHYAVSVKSRITINPDTSKNQFSLQLNSVTPEDTAVYYCARGGSGVMDVWGQGTLVTVSS VL: DIQMTQSPSSLSASVGDRVTITCRASQSITNYLNWYQQKPGKAPKLLIYDVSNLQSGVPSRFSGSGSGTDFTLTISSLQPEDFAVYYCQQYSGYPLTFGQGTKVEIKR |
| no binding | – | 25% | 69.1 s | 35.8 nM | 34.6 nM | 14.1 nM | 20.4 nM | TP-3B4 Fab (Fab, V domains shown, Human Fab from HuCal Gold, expressed in E. coli TG1) VH: QVQLQQSGPGLVKPSQTLSLTCAISGDSVSSNGAAWGWIRQSPGRGLEWLGHIYYRSKWYNSYAVSVKSRITINPDTSKNQFSLQLNSVTPEDTAVYYCARWGGIHDGDIYFDYWGQGTLVTVSS VL: DIQMTQSPSSLSASVGDRVTITCRASQNISNYLNWYQQKPGKAPKLLIYGTSSLQSGVPSRFSGSGSGTDFTLTISSLQPEDFAVYYCQQYGNNPTTFGQGTKVEIKR |
| no binding | – | 86% | 62.8 s | 0.48 nM | 5.18 nM | 5.06 nM | 46.1 nM | TP-2G6 Fab (Fab, V domains shown, Human Fab from HuCal Gold, expressed in E. coli TG1) VH: QVQLQQSGPGLVKPSQTLSLTCAISGDSVSSSSAAWSWIRQSPGRGLEWLGIIYYRSKWYNDYAVSVKSRITINPDTSKNQFSLQLNSVTPEDTAVYYCARHSMVGFDVWGQGTLVTVSS VL: DIVLTQSPATLSLSPGERATLSCRASQYVTSSYLAWYQQKPGQAPRLLIYGSSRATGVPARFSGSGSGTDFTLTISSLEPEDFATYYCQQYSSSPITFGQGTKVEIKR |
| no binding | – | 36% | 73.2 s | 343 nM | 871 nM | 42.1 nM | 16.1 nM | TP-2G5 Fab (Fab, V domains shown, Human Fab from HuCal Gold, expressed in E. coli TG1) VH: QVQLQQSGPGLVKPSQTLSLTCAISGDSVSSNSAAWSWIRQSPGRGLEWLGFIYYRSKWYNDYAVSVKSRITINPDTSKNQFSLQLNSVTPEDTAVYYCARHNPDLGFDYWGQGTLVTVSS VL: not shown |
| no binding | – | 30% | 70.8 s | 28.6 nM | 14.5 nM | 35.4 nM | 19.6 nM | TP-2A5.1 Fab (Fab, V domains shown, Human Fab from HuCal Gold, expressed in E. coli TG1) VH: QVQLVESGGGLVQPGGSLRLSCAASGFTFSSYGSWVRQAPGKGLEWVSVISGSGSSTYYADSVKGRFTISRDNSKNTLYLQMNSLRAEDTAVYYCARVNISTHFDVWGQGTLVTVSS VL: DIELTQPPSVSVAPGQTARISCSGDNIPEKYVHWYQQKPGQAPVLVIHGDNNRPSGIPERFSGSNSGNTATLTISGTQAEDEADYYCQSFDAGSYFVFGGGTKLTVLG |
| no binding | binds | – | – | – | – | – | – | TP-3F2 Fab (Fab, V domains shown, Human Fab from HuCal Gold, expressed in E. coli TG1) VH: QVQLVESGGGLVQPGGSLRLSCAASGFTFSSYSMHWVRQAPGKGLEWVSGISYSSSFTYYADSVKGRFTISRDNSKNTLYLQMNSLRAEDTAVYYCARALGGGVDYWGQGTLVTVSS VL: DIELTQPPSVSVAPGQTARISCSGDNLPSKSVYWYQQKPGQAPVLVIYGDNNRPSGIPERFSGSNSGNTATLTISGTQAEDEADYYCQSWTSRPMVVFGGGTKLTVLG |
